Test results from patent US20230331827A1, “POTASSIUM CHANNEL INHIBITORS” (priority 2017, published 2023).

Key:
huKv1.3 = molecular target: T1, huKv1.3 (Homo sapiens, UniProt P22001); assay: QPatch automated whole-cell patch-clamp, CHO cells stably expressing huKv1.3 (Example 8); type: cell-based
T1 construct: host or cells: CHO
Description: Knottin Kv 1.3 and ASIC1a blockers expressed in the KnotBody format (see examples 6 and 7) were tested for their ability to inhibit the function of the ion channel targets. The effect of these KnotBodies on cells expressing the human Kv 1.3 (huKv1.3) or human ASIC1a channels was assessed using QPatch automated whole-cell patch-clamp electrophysiology (Sophion).
For the testing of Kv1.3, CHO cells stably expressing huKv1.3 (Charles River Lab) were analysed using the QPatch electrophysiology assay in the presence or absence of the KnotBody fusions or the antibody isotypes (negative) controls. Internal and external physiological solutions were freshly prepared prior to the assay. The extracellular solution contained 145 mM NaCl, 4 mM KCl, 2 mM CaCl2, 1 mM MgCl2, 10 mM HEPES and 10 mM glucose; the pH was adjusted to 7.4 with NaOH; the osmolarity was ~ 305 mOsm/L. The intracellular solution contained: KF (120 mM), KCl (20 mM), HEPES (10 mM) and EGTA (10 mM); the pH was adjusted to 7.2 with KOH; osmolarity was ~ 320 mOsm/L.
A series of depolarising voltage (channel activating) pulses were used to monitor the channel currents upon adding control (extracellular solution) to define a control baseline of current activity. To these measured control currents ascending concentrations of KnotBodies or parental antibody isotypes (control molecules) were applied to the external bathing solution (2.2 µM - 0.5 nM, diluted in the extracellular solution). KnotBodies KB_A12 and KB_A07 (EETI-II fusions) were used as isotype controls for the testing. From a holding voltage of -80 mV a depolarising, activating voltage pulses of +30 or +80 mV were applied for 300 ms, every 5 or 10 seconds. The elicited, maximum outward current values measured during the activating step for each solution exchange period were averaged (n = 3 - 8 for each concentration applied) and plotted as concentration-response curves. KB_A07_ShK, KB_A12_ShK and KB_A07_Kaliotoxin (KTX) fusion proteins all inhibited the huKv1.3 currents in a concentration dependent manner with IC50S of approximately 20 nM, 40 nM and 900 nM respectively.

LOX-1 = LOX-1 (Homo sapiens, UniProt P78380); assay: Phage TRF binding assay on LOX-1; conditions: phage displayed, FIG. 19
Description: In order to test the functionality of these adhiron-antibody fusions, monoclonal phage prepared from each clone was assessed for binding to LOX-1 in a TRF binding assay. In this assay, LOX-1 (immobilised directly on Maxisorp™ plates) binding of phage displaying adhiron-antibody fusion was detected using a mouse anti-M13 antibody (GE Healthcare) followed by europium conjugated anti-mouse antibody (Perkin Elmer). Parent KnotBodies KB_A07 and KB_A12 (EETI-II fusions) were included as controls. Proteins cMET-FC, GAS6-CD4, FGFR4-CD4, UPA and B-gal were used to examine non-specific binding.

trypsin = assay: KnotBody Fab TRF binding assay on biotinylated trypsin; conditions: for TRF signal for 0.6 ug/mL Fab: Fab 0.6 ug/mL; for TRF signal for 2.4 ug/mL Fab: Fab 2.4 ug/mL; for TRF signal for 10 ug/mL Fab: Fab 10 ug/mL
Description: In order to confirm the trypsin binding ability of KnotBodies in Fab format, purified proteins were tested for binding to trypsin using a TRF binding assay. In this assay binding of KnotBody Fabs ([…]) to biotinylated trypsin (immobilised on streptavidin coated Maxisorp™ plates) was detected using a mouse anti-CH1 antibody followed by a europium conjugated anti-mouse antibody (Table 4). 7 KnotBodies (KB_A04, KB_A01, KB_A05, KB_A07, KB_A08, KB_A10, KB_A12) were chosen for crystallisation. DNA prepared for these clones were transfected into 500 ml HEK-293F cells as described before. Expressed proteins were purified using CaptureSelect IgG-CH1 affinity matrix. Purified proteins were initially subjected to crystallisation trials using commercially available crystallisation screens (Supplier). Well-defined crystals were readily obtained for KB_A12 and KB_A05. Crystallisation conditions for these two clones were further optimised and the following condition was used to generate diffraction quality crystals: 0.1 M MES pH=6.5, 25 %w/v PEG MME 2000 and 0.1 M Tris.Cl, 50% PEG MME, 10 mM NiCl2. Complete diffraction data was collected on these crystals at 100 K under liquid nitrogen stream. Collected data was processed using PROTEUM2 software (Bruker). The crystal structure of the knottin-fused Fab antibodies was resolved using molecular replacement technique^109 using Phenix software v 1.8.1-1168^110. Resulting structure was further refined using Phenix.Refine^111. The templates for molecular replacement were downloaded from PDB website (www.rcsb.org/pdb, PDB codes: 3G04 for light chain and 3QOS for heavy chain). KnotBody KB_A12 and KB_A05 sequences are given below. An additional AlaSer sequence is introduced at the N terminus of the light chain from the Nhe1 site used in cloning.
In order to compare the performance of the KnotBodies with short and long linkers, purified Fabs were tested for binding to trypsin by ELISA. In this assay binding of KnotBody Fabs (at 0.5 µg/ml) to biotinylated trypsin (5 µg/ml immobilised on streptavidin coated Maxisorp™ plates) was detected using a mouse anti-CH1 antibody (Hybridoma Reagent Laboratories) followed by a europium conjugated anti-mouse antibody (Perkin Elmer, Cat. No. AD0124). The trypsin binding capability of KB_A07 and KB_A12 KnotBodies were greatly diminished when the short selected linkers were replaced with long and flexible linkers (FIG. 22).

[1] = Kv1.3 channels, IgG KnotBody, Table 11A

T1 sequence (P22001 whole entry): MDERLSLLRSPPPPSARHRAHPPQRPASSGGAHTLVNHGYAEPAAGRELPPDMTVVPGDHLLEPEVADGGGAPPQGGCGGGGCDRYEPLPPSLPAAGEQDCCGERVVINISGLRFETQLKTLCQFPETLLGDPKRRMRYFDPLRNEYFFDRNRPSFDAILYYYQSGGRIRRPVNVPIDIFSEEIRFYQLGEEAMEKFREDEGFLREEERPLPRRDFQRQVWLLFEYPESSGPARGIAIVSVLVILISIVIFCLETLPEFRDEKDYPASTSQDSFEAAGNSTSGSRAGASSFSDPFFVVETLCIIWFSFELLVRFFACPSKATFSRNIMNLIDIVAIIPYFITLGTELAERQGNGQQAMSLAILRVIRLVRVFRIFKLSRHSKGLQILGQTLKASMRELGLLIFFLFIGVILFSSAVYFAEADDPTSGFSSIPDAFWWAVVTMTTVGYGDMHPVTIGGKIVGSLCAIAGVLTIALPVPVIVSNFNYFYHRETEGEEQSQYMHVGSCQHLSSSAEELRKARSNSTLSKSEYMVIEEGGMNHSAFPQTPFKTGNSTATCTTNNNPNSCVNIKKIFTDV

Row | Molecule | IC50 (huKv1.3; [1]) [nM] | IC50 (huKv1.3; huKv1.3 currents, text of Example 8, approximately) [nM] | binding to LOX-1 (LOX-1) | TRF signal for 0.6 ug/mL Fab (trypsin) | TRF signal for 2.4 ug/mL Fab (trypsin) | TRF signal for 10 ug/mL Fab (trypsin)
1 | KB_A12_ShK: ShK toxin in VL CDR2 of KB_A12, IgG1 (antibody, V domains shown) VH: EVQLVESGGGLVRPGGSLRLSCAASGFTFSSYAMSWVRQAPGKGLEWVSAISGSGGSTYYADSVKGRFTISRDNTKNSLYLQMTSLRADDTAFYYCVKDFGPGYGTGWFDYWGPGTLVTVSS VL: QSVLTQPPSVSEAPRQRVTITCSGSSSNIGNNAVNWYQQLPGKAPKLLIYAAGRRSCIDTIPKSRCTAFQCKHSMKYRLSFCRKTCGTCANSGVSDRFSAAKSGTSASLAINGLRSEDEADYYCAAWDDSLNGYVFGTGTKLTVLG | 20 | ~40 | – | – | – | –
2 | KB_A07: EETI-II knottin fused into VL CDR2, D1A12 VH; parental KnotBody, isotype control (antibody, V domains shown) VH: EVQLVESGGGLVRPGGSLRLSCAASGFTFSSYAMSWVRQAPGKGLEWVSAISGSGGSTYYADSVKGRFTISRDNTKNSLYLQMTSLRADDTAFYYCVKDFGPGYGTGWFDYWGPGTLVTVSS VL: DIQMTQSPSSLSASVGDRVTITCRASQSISSYLNWYQQKPGKAPKLLIYAAGVCPRILMRCKQDSDCLAGCVCGPNGFCGSRSGVPSRFSGSGSGTDFTLTISSLQPEDFATYYCQQGASPPYTFGQGTKVEIKRT | > 10000 | – | no detectable binding to the LOX-1 | 107814 | 201003 | 226082
3 | KB_A12: EETI-II knottin fused into VL CDR2, D1A12 VH; parental KnotBody, isotype control (antibody, V domains shown) VH: EVQLVESGGGLVRPGGSLRLSCAASGFTFSSYAMSWVRQAPGKGLEWVSAISGSGGSTYYADSVKGRFTISRDNTKNSLYLQMTSLRADDTAFYYCVKDFGPGYGTGWFDYWGPGTLVTVSS VL: QSVLTQPPSVSEAPRQRVTITCSGSSSNIGNNAVNWYQQLPGKAPKLLIYAAGRCPRILMRCKQDSDCLAGCVCGPNGFCGANSGVSDRFSAAKSGTSASLAINGLRSEDEADYYCAAWDDSLNGYVFGTGTKLTVLGQP | > 10000 | – | no detectable binding to the LOX-1 | 102132 | 221989 | 252832
